The source of these data is patent US20140212423A1 (AbbVie / Abbott, published 2014).

Assay [1] deals with Repulsive guidance molecule A. Description: cell-based or functional assay.
Assay [2] addresses T1, mouse Transferrin Receptor overexpressed on Hek 293 cells (mouse, UniProt Q62351 1-763).
T1 construct: whole, on cells; also called Hek293/mTfR; 293/mTFR
Description: 293/mTFR cell-based assay. The procedure:
(§1) Meso-scale Discovery (MSD) Electrochemiluminescesnce (ECL) assays to screen for antibodies or DVDs that bind a desired target antigen expressed on the cell surface were performed as follows: Hek 293 cells overexpressing mouse Transferin Receptor were added onto MSD 96-well plates (MSD Cat# L11 XB-3, lot#2290-EA) which were blocked using blocking buffer (30% FBS Serum (Hyclone) in PBS) at 37° C. for 1 hr. After incubating at RT for 30 min with mild agitation, plates were washed with DPBS 3 times and Abs/DVDs (10,000 ng/ml) were added. After incubating for 1 hr at RT, plates were washed 3 times with DPBS and 25 ul of Goat anti human Sulfo TAG (MSD Cat# R32AC-, Lot# W001162) at 1 μg/ml is added. Following a 1 h incubation at RT for 1 hr, plates are washed and MSD read buffer is added before reading on MSD SECTOR Imager 6000. EC50 values are obtained using Xlfit4 software package

For assay [3], the target named is T1, mouse Transferrin Receptor …. Description: cell-based MSD-ECL binding on Hek293 cells overexpressing mouse TfR. The method, then: as §1

T1 sequence (Q62351 whole entry): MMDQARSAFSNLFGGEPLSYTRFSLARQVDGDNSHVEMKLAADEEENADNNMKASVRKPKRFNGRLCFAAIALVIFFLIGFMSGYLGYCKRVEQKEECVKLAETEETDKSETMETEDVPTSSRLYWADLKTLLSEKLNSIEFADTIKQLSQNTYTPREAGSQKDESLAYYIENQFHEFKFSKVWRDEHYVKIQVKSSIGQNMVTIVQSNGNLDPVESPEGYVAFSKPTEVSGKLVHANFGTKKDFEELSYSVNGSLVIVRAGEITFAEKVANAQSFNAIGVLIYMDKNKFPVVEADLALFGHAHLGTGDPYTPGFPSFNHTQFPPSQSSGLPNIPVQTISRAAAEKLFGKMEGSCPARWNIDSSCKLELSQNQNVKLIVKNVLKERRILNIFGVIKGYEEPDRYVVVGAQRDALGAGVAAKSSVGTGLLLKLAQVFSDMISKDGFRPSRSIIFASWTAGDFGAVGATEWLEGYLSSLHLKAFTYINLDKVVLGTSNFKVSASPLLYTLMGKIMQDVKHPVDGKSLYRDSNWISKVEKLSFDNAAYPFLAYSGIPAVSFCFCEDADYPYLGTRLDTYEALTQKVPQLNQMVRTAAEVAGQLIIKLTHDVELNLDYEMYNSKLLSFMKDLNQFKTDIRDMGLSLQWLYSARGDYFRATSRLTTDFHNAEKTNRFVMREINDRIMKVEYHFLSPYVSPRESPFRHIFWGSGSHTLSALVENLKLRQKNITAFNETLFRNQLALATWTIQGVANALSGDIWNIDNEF

B1: RGMA (AE12-1) (antibody, V domains shown)
VH: EVQLVQSGAEVKKPGASVKVSCKASGYTFTSHGISWVRQAPGQGLDWMGWISPYSGNTNYAQKLQGRVTMTTDTSTSTAYMELSSLRSEDTAVYYCARVGSGPYYYMDVWGQGTLVTVSS
VL: QSALTQPRSVSGSPGQSVTISCTGTSSSVGDSIYVSWYQQHPGKAPKLMLYDVTKRPSGVPDRFSGSKSGNTASLTISGLQAEDEADYYCCSYAGTDTLFGGGTKVTVLG
With B1, the “BMP Assay (EC50, nM)” value in assay [1] is 0.25 nM.

B2: TfR(AB405)-SL-RGMA(AE12-1) (bispecific antibody)
VH: QVQLVQSGAEVKKPGASVKVSCKASGFTFSNYGMHWIRQAPGQGLEWIAMIYYDSSKMNYADTVKGRFTITRDNSTNTLYMELSSLRSEDTAVYYCAVPTSHYVVDVWGQGTTVTVSSASTKGPEVQLVQSGAEVKKPGASVKVSCKASGYTFTSHGISWVRQAPGQGLDWMGWISPYSGNTNYAQKLQGRVTMTTDTSTSTAYMELSSLRSEDTAVYYCARVGSGPYYYMDVWGQGTLVTVSS
VL: EIVMTQSPATLSVSPGERATLSCQASQDIGNWLAWYQQKPGQSPRLLIYGATSLADGVPARFSGSRSGTEFTLTISSLQSEDFAVYYCLQAYNTPWTFGGGTKVEIKRTVAAPSVFIFPPQSALTQPRSVSGSPGQSVTISCTGTSSSVGDSIYVSWYQQHPGKAPKLMLYDVTKRPSGVPDRFSGSKSGNTASLTISGLQAEDEADYYCCSYAGTDTLFGGGTKVTVLG
notes: DVD-Ig composed from its name; constant regions not assigned
As a reminder, the EC50 is the midpoint of the concentration-response curve. Low readings indicate a more potent agent, high ones a less potent agent. In assay [2], B2 gave an EC50 of 4.41 nM. In assay [1], the “BMP Assay (EC50, nM)” value was 0.73 nM.

B3: TfR(AB405)-LL-RGMA(AE12-1) (bispecific antibody)
chain 1: QVQLVQSGAEVKKPGASVKVSCKASGFTFSNYGMHWIRQAPGQGLEWIAMIYYDSSKMNYADTVKGRFTITRDNSTNTLYMELSSLRSEDTAVYYCAVPTSHYVVDVWGQGTTVTVSSASTKGPSVFPLAPEVQLVQSGAEVKKPGASVKVSCKASGYTFTSHGISWVRQAPGQGLDWMGWISPYSGNTNYAQKLQGRVTMTTDTSTSTAYMELSSLRSEDTAVYYCARVGSGPYYYMDVWGQGTLVTVSS
chain 2: EIVMTQSPATLSVSPGERATLSCQASQDIGNWLAWYQQKPGQSPRLLIYGATSLADGVPARFSGSRSGTEFTLTISSLQSEDFAVYYCLQAYNTPWTFGGGTKVEIKRTVAAPSVFIFPPQSALTQPRSVSGSPGQSVTISCTGTSSSVGDSIYVSWYQQHPGKAPKLMLYDVTKRPSGVPDRFSGSKSGNTASLTISGLQAEDEADYYCCSYAGTDTLFGGGTKVTVLG
In the case of B3, the midpoint of the response in assay [2], the EC50, lay at 4.44 nM. Also, the “BMP Assay (EC50, nM)” value in assay [1] was determined as 0.701 nM.

B4: Aβ(3D6)-GS-AB403 (bispecific antibody)
VH: EVQLLESGGGLVQPGGSLRLSCAASGFTFSNYGMSWVRQAPGKGLEWVASIRSGGGRTYYSDNVKGRFTISRDNSKNTLYLQMNSLRAEDTAVYYCVRYDHYSGSSDYWGQGTLVTVSSGGGGSGGGGSEVQLVESGGGLVQPGGSLRLSCAASGFTFSNYGMHWIRQAPGKGLEWIAMIYYDSSKMNYADTVKGRFTISRDNAKNSLYLQMNSLRAEDTAVYYCAVPTSHYVVDVWGQGTTVTVSS
VL: DVVMTQSPLSLPVTPGEPASISCKSSQSLLDSDGKTYLNWLLQKPGQSPQRLIYLVSKLDSGVPDRFSGSGSGTDFTLKISRVEAEDVGVYYCWQGTHFPRTFGQGTKVEIKRGGSGGGGSGEIVMTQSPATLSVSPGERATLSCQASQDIGNWLAWYQQKPGQSPRLLIYGATSLADGVPARFSGSRSGTEFTLTISSLQSEDFAVYYCLQAYNTPWTFGGGTKVEIKR
notes: DVD-Ig composed from its name; Aβ(3D6) = AB043 read from DVD2359; constant regions not assigned; also called Aβ(3D6)-GS-AB403 DVD-Ig
The molecule B4 returned an EC50 in assay [2] of 1.98 nM.

B5: DVD1294 (bispecific antibody)
VH: EVQLVESGGGLVQPGNSLTLSCVASGFTFSNYGMHWIRQAPKKGLEWIAMIYYDSSKMNYADTVKGRFTISRDNSKNTLYLEMNSLRSEDTAMYYCAVPTSHYVVDVWGQGVSVTVSSASTKGPEVQLLESGGGLVQPGGSLRLSCAASGFTFSNYGMSWVRQAPGKGLEWVASIRSGGGRTYYSDNVKGRFTISRDNSKNTLYLQMNSLRAEDTAVYYCVRYDHYSGSSDYWGQGTLVTVSS
VL: DIQMTQSPASLSASLEEIVTITCQASQDIGNWLAWYQQKPGKSPQLLIYGATSLADGVPSRFSGSRSGTQFSLKISRVQVEDIGIYYCLQAYNTPWTFGGGTKLELKRTVAAPDVVMTQSPLSLPVTPGEPASISCKSSQSLLDSDGKTYLNWLLQKPGQSPQRLIYLVSKLDSGVPDRFSGSGSGTDFTLKISRVEAEDVGVYYCWQGTHFPRTFGQGTKVEIKR
notes: DVD-Ig, outer AB221 (TfR), inner AB043 (APP), HG-short/LK-short; the entries are the dual variable regions only; constant regions not assigned
On to B5, for which, in assay [3], it took 0.11 nM to reach a half-maximal effect (EC50).

B6: TfR(AB405)-LS-RGMA(AE12-1) (bispecific antibody)
chain 1: QVQLVQSGAEVKKPGASVKVSCKASGFTFSNYGMHWIRQAPGQGLEWIAMIYYDSSKMNYADTVKGRFTITRDNSTNTLYMELSSLRSEDTAVYYCAVPTSHYVVDVWGQGTTVTVSSASTKGPSVFPLAPEVQLVQSGAEVKKPGASVKVSCKASGYTFTSHGISWVRQAPGQGLDWMGWISPYSGNTNYAQKLQGRVTMTTDTSTSTAYMELSSLRSEDTAVYYCARVGSGPYYYMDVWGQGTLVTVSS
chain 2: EIVMTQSPATLSVSPGERATLSCQASQDIGNWLAWYQQKPGQSPRLLIYGATSLADGVPARFSGSRSGTEFTLTISSLQSEDFAVYYCLQAYNTPWTFGGGTKVEIKRTVAAPQSALTQPRSVSGSPGQSVTISCTGTSSSVGDSIYVSWYQQHPGKAPKLMLYDVTKRPSGVPDRFSGSKSGNTASLTISGLQAEDEADYYCCSYAGTDTLFGGGTKVTVLG
Molecule B6 showed an EC50 in assay [2] of 3.9 nM.

B7: TfR(AB405)-GS-RGMA(AE12-1) (bispecific antibody)
VH: QVQLVQSGAEVKKPGASVKVSCKASGFTFSNYGMHWIRQAPGQGLEWIAMIYYDSSKMNYADTVKGRFTITRDNSTNTLYMELSSLRSEDTAVYYCAVPTSHYVVDVWGQGTTVTVSSGGGGSGGGGSEVQLVQSGAEVKKPGASVKVSCKASGYTFTSHGISWVRQAPGQGLDWMGWISPYSGNTNYAQKLQGRVTMTTDTSTSTAYMELSSLRSEDTAVYYCARVGSGPYYYMDVWGQGTLVTVSS
VL: EIVMTQSPATLSVSPGERATLSCQASQDIGNWLAWYQQKPGQSPRLLIYGATSLADGVPARFSGSRSGTEFTLTISSLQSEDFAVYYCLQAYNTPWTFGGGTKVEIKRGGSGGGGSGQSALTQPRSVSGSPGQSVTISCTGTSSSVGDSIYVSWYQQHPGKAPKLMLYDVTKRPSGVPDRFSGSKSGNTASLTISGLQAEDEADYYCCSYAGTDTLFGGGTKVTVLG
notes: as for B2
On to B7, for which the EC50 in assay [2] worked out at 28.1 nM. Also, the “BMP Assay (EC50, nM)” value in assay [1] stood at 3.12 nM.

B8: AB405-SL-Aβ(3D6) (bispecific antibody)
VH: QVQLVQSGAEVKKPGASVKVSCKASGFTFSNYGMHWIRQAPGQGLEWIAMIYYDSSKMNYADTVKGRFTITRDNSTNTLYMELSSLRSEDTAVYYCAVPTSHYVVDVWGQGTTVTVSSASTKGPEVQLLESGGGLVQPGGSLRLSCAASGFTFSNYGMSWVRQAPGKGLEWVASIRSGGGRTYYSDNVKGRFTISRDNSKNTLYLQMNSLRAEDTAVYYCVRYDHYSGSSDYWGQGTLVTVSS
VL: EIVMTQSPATLSVSPGERATLSCQASQDIGNWLAWYQQKPGQSPRLLIYGATSLADGVPARFSGSRSGTEFTLTISSLQSEDFAVYYCLQAYNTPWTFGGGTKVEIKRTVAAPSVFIFPPDVVMTQSPLSLPVTPGEPASISCKSSQSLLDSDGKTYLNWLLQKPGQSPQRLIYLVSKLDSGVPDRFSGSGSGTDFTLKISRVEAEDVGVYYCWQGTHFPRTFGQGTKVEIKR
notes: DVD-Ig composed from its name; constant regions not assigned; also called AB405-SL-Aβ(3D6) DVD-Ig
For the molecule B8, in assay [2], the EC50 was determined as 4.71 nM.

B9: DVD1295 (bispecific antibody)
VH: EVQLLESGGGLVQPGGSLRLSCAASGFTFSNYGMSWVRQAPGKGLEWVASIRSGGGRTYYSDNVKGRFTISRDNSKNTLYLQMNSLRAEDTAVYYCVRYDHYSGSSDYWGQGTLVTVSSASTKGPEVQLVESGGGLVQPGNSLTLSCVASGFTFSNYGMHWIRQAPKKGLEWIAMIYYDSSKMNYADTVKGRFTISRDNSKNTLYLEMNSLRSEDTAMYYCAVPTSHYVVDVWGQGVSVTVSS
VL: DVVMTQSPLSLPVTPGEPASISCKSSQSLLDSDGKTYLNWLLQKPGQSPQRLIYLVSKLDSGVPDRFSGSGSGTDFTLKISRVEAEDVGVYYCWQGTHFPRTFGQGTKVEIKRTVAAPDIQMTQSPASLSASLEEIVTITCQASQDIGNWLAWYQQKPGKSPQLLIYGATSLADGVPSRFSGSRSGTQFSLKISRVQVEDIGIYYCLQAYNTPWTFGGGTKLELKR
notes: DVD-Ig, outer AB043 (APP), inner AB221 (TfR), HG-short/LK-short; dual variable regions only; constant regions not assigned
Regarding B9, in assay [3], it took 3.7 nM to reach a half-maximal effect (EC50).

B10: DVD2359 (bispecific antibody)
VH: EVQLLESGGGLVQPGGSLRLSCAASGFTFSNYGMSWVRQAPGKGLEWVASIRSGGGRTYYSDNVKGRFTISRDNSKNTLYLQMNSLRAEDTAVYYCVRYDHYSGSSDYWGQGTLVTVSSASTKGPEVQLVESGGGLVQPGGSLRLSCAASGFTFSNYGMHWIRQAPGKGLEWIAMIYYDSSKMNYADTVKGRFTISRDNAKNSLYLQMNSLRAEDTAVYYCAVPTSHYVVDVWGQGTTVTVSS
VL: DVVMTQSPLSLPVTPGEPASISCKSSQSLLDSDGKTYLNWLLQKPGQSPQRLIYLVSKLDSGVPDRFSGSGSGTDFTLKISRVEAEDVGVYYCWQGTHFPRTFGQGTKVEIKRTVAAPAIQMTQSPSSLSASVGDRVTITCQASQDIGNWLAWYQQKPGKSPKLLIYGATSLADGVPSRFSGSRSGTDFTLTISSLQPEDFATYYCLQAYNTPWTFGGGTKVEIKR
notes: DVD-Ig, outer AB043 (APP), inner AB402 (TfR), HG-short/LK-short; dual variable regions only; constant regions not assigned; also called Aβ(3D6)-SS-AB402 DVD2359; Aβ(3D6)-SS-AB402 DVD-Ig 2359
As for B10, the EC50 in assay [3] and in assay [2] was 12 nM throughout.

B11: DVD2361 (bispecific antibody)
chain 1: EVQLLESGGGLVQPGGSLRLSCAASGFTFSNYGMSWVRQAPGKGLEWVASIRSGGGRTYYSDNVKGRFTISRDNSKNTLYLQMNSLRAEDTAVYYCVRYDHYSGSSDYWGQGTLVTVSSASTKGPEVQLVESGGGLVQPGGSLRLSCAASGFTFSNYGMHWIRQAPGKGLEWIAMIYYDSSKMNYADTVKGRFTISRDNAKNSLYLQMNSLRAEDTAVYYCAVPTSHYVVDVWGQGTTVTVSS
chain 2: DVVMTQSPLSLPVTPGEPASISCKSSQSLLDSDGKTYLNWLLQKPGQSPQRLIYLVSKLDSGVPDRFSGSGSGTDFTLKISRVEAEDVGVYYCWQGTHFPRTFGQGTKVEIKRTVAAPEIVMTQSPATLSVSPGERATLSCQASQDIGNWLAWYQQKPGQSPRLLIYGATSLADGVPARFSGSRSGTEFTLTISSLQSEDFAVYYCLQAYNTPWTFGGGTKVEIKR
B11 returned a concentration for a half-maximal effect (EC50) in assay [3] of 10.7 nM.
